Consider 17 sequences from the DeepSol protein solubility set.

The nature of the data set: soluble on expression in E. coli; label from the status in PepcDB or PDB records.
For the sequence “PESPGGRGIKPDTCPAPGPRSPLQLPLAPDAESGSSGRRPGEPRDPLKLQQLQNQIRLEQEAGARQPPPAPRSAPPSPPFPPPPAFPELAACTPPASPEPMSALASRSAPAMQSSGSFNYARPKQFIAAQNLGPASGHGTPASSPSSSSLPSPMSPTPRQFGRAPVPPFAQPFGAEPEAPWGSSSPSPPPPPPPVFSPTAAFPVPDVFPLPPPPPPLPSPGQASHCSSPATRFGHGQTPAAFLSALLPSQPPPAAVNALGLPKGVTPAGFPKKASRTARIASDEEIQGTKDAVIQDLERKLRFKEDLLNNGQPRLTYEERMARRLLGADSATVFNIQEPEEETANQEYKVSSCEQRLISEIEYRLERSPVDESGDEVQYGDVPVENGMAPFFEMKLKHYKIFEGMPVTFTCRVAGNPKPKIYWFKDGKQISPKSDHYTIQRDLDGTCSLHTTASTLDDDGNYTIMAANPQGRISCTGRLMVQAVNQRGRSPRSPSGHPHVRRPRSRSRDSGDENEPIQERFFRPHFLQAPGDLTVQEGKLCRMDCKVSGLPTPDLSWQLDGKPVRPDSAHKMLVRENGVHSLIIEPVTSRDAGIYTCIATNRAGQNSFSLELVVAAKEAHKPPVFIEKLQNTGVADGYPVRLECRVLGVPPPQIFWKKENESLTHSTDRVSMHQDNHGYICLLIQGATKEDAGWYTVSAKNEAGIVSCTARLDVYTQWHQQSQSTKPKKVRPSASRYAALSDQGLDIKAAFQPEANPSHLTLNTALVESEDL”, the “soluble on expression in E. coli” value is “soluble”.

With “MNMPMTERIRAGKLFTDMCEGLPEKRLRGKTLMYEFNHSHPSEVEKRESLIKEMFATVGENAWVEPPVYFSYGSNIHIGRNFYANFNLTIVDDYTVTIGDNVLIAPNVTLSVTGHPVHHELRKNGEMYSFPITIGNNVWIGSHVVINPGVTIGDNSVIGAGSIVTKDIPPNVVAAGVPCRVIREINDRDKHYYFKDYKVESSV”, the “soluble on expression in E. coli” value was “soluble”. As for “MAFNSALFDGMVIFSEVVTSGSFTQAALNSGHSTSYISKEIGKLEERLGVRLLHRTTRTLRLTPEGELYFQQCQQLIEDAQMAENSITGQQEKPKGRLKVSCPVGFALSRLRPILGKFTDLYPDIILELDLNDKKIDIVAEGFDMAIRASHQLEDSSLISRRFLRSKAITIASPGYLKKHGAPLYPHDLSSHKTIGYAYVKQGAIWDFFDKNKQPFSVQLNSQVITNNSFMALSLCLAEQGITRIPHFHLTDELETGKLVELFADYPKLTIDIFMVYPSRKHMSAKVRCFMDFISEHLGD”, the entry is “not soluble”; as for “MAQFESGVKYVPYSQEQVFNKLSDLSNLESVRDKLADKVQGMEFDSDSLSFTVQGISITLRIIEREPYKCVKFESEKSPVPMNLWIQILPVEAGQAKLKVTIRAEVNMFMKAMVAKPLQDGVDKLAEMLSMIPYLEHHHHHH”, “soluble”. The same measure for “MEADGLGCAVCVLTGASRGFGRALAPQLARLLSPGSVMLVSARSESMLRQLKEELGAQQPDLKVVLAAADLGTEAGVQRLLSAVRELPRPEGLQRLLLINNAATLGDVSKGFLNVNDLAEVNNYWALNLTSMLCLTSGTLNAFQDSPGLSKTVVNISSLCALQPYKGWGLYCAGKAARDMLYQVLAAEEPSVRVLSYAPGPLDNDMQQLARETSKDPELRSKLQKLKSDGALVDCGTSAQKLLGLLQKDTFQSGAHVDFYD”: “soluble”; for “METNLFKLSLDDVETPKGSMLDLKISQSKIALPKNTVGGTILRSDLLANFLTEGNFRASVDLQRTHRIKGMIKMVATVGIPENTGIALACAMNSSIRGRASSDIYTICSQDCELWNPACTKAMTMSFNPNPCSDAWSLEFLKRTGFHCDIICVTGWTATPMQDVQVTIDWFISSQECVPRTYCVLNPQNPFVLNRWMGKLTFPQGTSRSVKRMPLSIGGGAGAKSAILMNMPNAVLSMWRYFVGDLVFEVSKMTSPYIKCTVSFFIAFGNLADDTINFEAFPHKLVQFGEIQEKVVLKFSQEEFLTAWSTQVRPATTLLADGCPYLYAMVHDSSVSTIPGDFVIGVKLTIIENMCAYGLNPGISGSRLLGTIPQ”: “soluble”. For “MYLTKEEEQILNGEAGETLRQAIQILVALGDIYGADRLIPIKSAQIAGVSYKTIGDAGLEWISDLEGQVKVPAILNPAGMDLEDWERLRISPEFAEKQKEIVQAYKKLGIRCECTCTPYTLEGFSVSYGDHLAWSESSAISYANSVIGARTNREGGPSALSAALLGKTANYGFHLDKNRVPEVSVSVECSLKESDYGALGYVAGKLIGNRVPIFQLRSKPEKDELKSLGAAMAASGAVALYHVKGVTPEACRMDFEEPEEKIIIERSQLDEVYESKGKEPELITIGCPHCSAAELKKAAELLKGKTVSKETWIFTSRELAERYPEYIRTIEESGAKVVCDTCMVVSPATNSYSCVMVNSGKAFAYVPGMCGAQSVYGNMEACINKATGGKERKAGDSHLEHHHHHH”, the “soluble on expression in E. coli” value is on record as “not soluble”. The same measure for “MAKKTSSLLSRRRTRRPGEPPLDLGSIPWLGYALDFGKDAASFLTRMKEKHGDIFTILVGGRYVTVLLDPHSYDAVVWEPRTRLDFHAYAIFLMERIFDVQLPHYSPSDEKARMKLTLLHRELQALTEAMYTNLHAVLLGDATEAGSGWHEMGLLDFSYSFLLRAGYLTLYGIEALPRTHESQAQDRVHSADVFHTFRQLDRLLPKLARGSLSVGDKDHMCSVKSRLWKLLSPARLARRAHRSKWLESYLLHLEEMGVSEEMQARALVLQLWATQGNMGPAAFWLLLFLLKNPEALAAVRGELESILWQAEQPVSQTTTLPQKVLDSTPVLDSVLSESLRLTAAPFITREVVVDLAMPMADGREFNLRRGDRLLLFPFLSPQRDPEIYTDPEVFKYNRFLNPDGSEKKDFYKDGKRLKNYNMPWGAGHNHCLGRSYAVNSIKQFVFLVLVHLDLELINADVEIPEFDLSRYGFGLMQPEHDVPVRYRIRPHHHH”: “soluble”.

With “MAHHHHHHMYLHVMKVACTPDERHCENSVNPSSSSTLPSATTSSSCPVEHGVPDEESRFTRLYEAAVENESALRVGNYTRRLLFDEFCATSDATRQASQPTCRMLRQRHPALRSLSLSVEGMHSAGADRTSATQLPADSTMSAAESLQAYLSPALSAWRCASQEPFASSAQVAAAAPLPTSAVASDVRPRSPLPLHIDESDAPVDEGAHGEGLEALYMDVFDQEGPANNHEVAVNAAYTREREAADRAALLSAQQATMAGCPCGFTARGSTPSADVSLSNASSLLPEEDDISLVLQPVLGGVAQRRGRGIRVHLESEPSVTTSSSMVDASFLQAGRETTTLTCAVCELSGVVGDPHRTCIDAVELQEEDELHPCGTCGALVHSYCACPGTTADTHYCCNPCCPGGGTV”, the “soluble on expression in E. coli” value is “not soluble”. As for “MTAAPYNYSYIFKYIIIGDMGVGKSCLLHQFTEKKFMADCPHTIGVEFGTRIIEVSGQKIKLQIWDTAGQERFRAVTRSYYRGAAGALMVYDITRRSTYNHLSSWLADAKSLTNPNTAIFLIGNKADLEDQRDVPYEEAKAFAEENGLTFLECSAKTGSNVEDAFLETAKQIYQNIQDGSLDLNAADTGVQPKQNLPRAAENNGKKDCNC”, the entry is “not soluble”; as for “MLKVDGIDVFYGNIHALKGVSLEVNKGEIVTLIGANGAGKTTLLKTISGLLRPKNGDIVYEGASIAGKAAQTIVKQGISHVPEGRRVFANMTVEENLELGAFLRKDKEGIQQDFAKVFQLFPRLEERRKQLAGTLSGGEQQMLAIGRALMARPKLLLLDEPSMGLAPLLVKTIFRIIQEINESGTTILLVEQNAHMALSIAHRAYVLESGRVVLSGTASELQASEQVKQAYLGGH”, “soluble”; as for “MGSDKIHHHHHHMAKKHRKESLDALFREKVLLEMLKIAGVGMWTYSTETGRLRYIGFADTIHRHDELQYVDPADYLKLMNGEDLQTVTQFMADIHAGRPPQEGIRYKIHGNGEDFYLENHVVTCQPLGNGFYYLKGYVKNITAQVMEANRLCIEKERTEQADRLRSAFFAHVSRELRGPLNRIEELASQMVHAESVEEREECFHRIQENRRMAMKIADALHAVSQLPVSTYEPYHSPMQLCLIYRDLLMENGYSHNPEDGEQEENANFLSLLFS”, “not soluble”.

For the sequence “MQTFGSRGEKRTFEMLTNEVEYQHYRFSFANNPATAAGIFQLAEIELTVVADAPLVDFASNISRAEIGENVQFWDRSLANPTGWQWTFEDGEPATSTNRNPAVTFTSLGAKSVTLVASNDKGSNEKVQEQVVHIWDSQNPWAGYVKPTVTLVAHKPEHEGQIAFSRVMPDIEAVIHDISLQIVKVLYKDVAEAPLFKTVTFETDEYDFPAAKSGTDEDMILMMDVAHLANKAAEGDDALRDEVIGMLWHELTHGYNNSPNSGEYATGDEYHSYLESLANYMRIKAGFHESRRVGIKWVDNWNVDAYEQTSFFLEWVANSHRSVDFIYLFNKAAGDLKEWSFEAAFKSIFGEDKGVSIFWQEYHDAQGIEPPYPTPVDGYRNFAVDEGVSISTNATTVIIPDWDAYEGEDKLIDNNVTKKFNAFIEGTWWLEEHASHLFPINDITNVEVTFELPDAIVLHKYSVTTGNDNPQRDPTLWTISGSVDGEVWTQLDSDNYPSDPERLITFHYDIDDAVTAYKYYQFVFENTQPAGDSIGGDNGRLVQIGEIALLTEELEHHHHHH”, the “soluble on expression in E. coli” value is on record as “soluble”. Consider “MSLGELFAVFNEKLTIPEQEALMFLYAYMPTGDVTDYTGDYYLENVRLSDQARREMPWGKEIPDDVFRHFVLPIRVNNENLDDSRRVFYNELKDRVKNLSLHDAVLEVNHWCHEKVIYTPSDARTSAPLASVKTAYGRCGEESTFTVAALRSVGIPARQVYTPRWAHTDDNHAWVEAWVDGKWYFFGACEPEPVLNLGWFNAPASRGMLMHTKVFGRYTGQEEIMYETPNYTEINVIDNYAPTAKGSVLVTDAEGQPVADATVEFKVYNYAEFYTVATKHTDRSGHASLTAGKGDMLVWASKDGRFGYSKLSFGKDNELKITLDKNASETYSLPLDIVPPAEGEGHHHHHH”, for which the “soluble on expression in E. coli” value is “not soluble”. As for “MELKLIPIEKPENLNVILGQAHFIKTVEDLHEALVTAVPGIRFGLAFSEASGKRLVRRSGTDEALVELAVKNLLNLACGHVFLIVLGEGFYPINVLHAVKACPEVVRIYAATANPLKVVVAEEGEQRAILGVMDGFTPLGVEDEAEVAWRKDLLRRLGYKL”, the entry is “soluble”.

With “MSLKNNVYILADSVVTPLGQSTEENMEKLYSLQSAIRTYTHPQIGTFYASKFEDGKSFQIKKDAAGKTKIERLFISCIEKALERTEIDVENANVLFVFASTKGNVEYLTDETFDKNRLRIGITAQDVTAYFNNPNTPIVVSNACISGLQAIQYGYEVLQDNRYTHVVVTGADCFSEFILSGFHSFQALSPFPCKPFDKARAGLSLGEGCGTLILSNKKTDAAAIEILSVVSSNDANHLSGPSRTGEGLSSAILGAINEAGITAEQIDVISAHGTATLYNDEMESMAFKTANLEAKAVYSVKGNIGHTLGAAGIIETIYLAQSLQNNMLVPSIGFTETGTSVELNVTRQSTLKTMQIGLKTASGFGGGNTALLLKKEGHHHHHH”, the “soluble on expression in E. coli” value is listed as “not soluble”. In the case of “MSLRETLKTIAETLNVTHTTVSNVFNRPEKVSPELREKILAYAESINYHGPAGAGRFLRTGKCGTLGVIFNDNLSYVFSDRHDIALMRGIAEECEKNGINIALMPLKTNNALKKRMMGALVDGYILNATYNNDEVVQAALTSGLPVITTDIKLQNFTCVSIDDGAAMQAICHHLLAAGHKKFGIVSFPVKRLPGELTSLAEFSTDYDNGVAFGRISACITALSDAGIDLHTSYVAEQPHSETGGEKAAKALLAKEPGISAIICLSDRFAFGVYQFCQDHNIPVPGQIAITGFDDIDIQDPPVGLTTIRQPTVLKGREAARALISGQLDNDISLDFELVVRDSAEGHHHHHH”, the “soluble on expression in E. coli” value was “soluble”.
